Source: IntAct's records for PubMed 29039417

B1: Protein PTHB1 (Homo sapiens), Q3SYG4 (parent)
chain: MSLFKARDWWSTILGDKEEFDQGCLCLANVDNSGNGQDKIIVGSFMGYLRIFSPHPAKTGDGAQAEDLLLEVDLRDPVLQVEVGKFVSGTEMLHLAVLHSRKLCVYSVSGTLGNVEHGNQCQMKLMYEHNLQRTACNMTYGSFGGVKGRDLICIQSMDGMLMVFEQESYAFGRFLPGFLLPGPLAYSSRTDSFLTVSSCQQVESYKYQVLAFATDADKRQETEQQKLGSGKRLVVDWTLNIGEQALDICIVSFNQSASSVFVLGERNFFCLKDNGQIRFMKKLDWSPSCFLPYCSVSEGTINTLIGNHNNMLHIYQDVTLKWATQLPHIPVAVRVGCLHDLKGVIVTLSDDGHLQCSYLGTDPSLFQAPNVQSRELNYDELDVEMKELQKIIKDVNKSQGVWPMTEREDDLNVSVVVSPNFDSVSQATDVEVGTDLVPSVTVKVTLQNRVILQKAKLSVYVQPPLELTCDQFTFEFMTPDLTRTVSFSVYLKRSYTPSELEGNAVVSYSRPTDRNPDGIPRVIQCKFRLPLKLICLPGQPSKTASHKITIDTNKSPVSLLSLFPGFASQSDDDQVNVMGFHFLGGARITVLASKTSQRYRIQSEQFEDLWLITNELILRLQEYFEKQGVKDFACSFSGSIPLQEYFELIDHHFELRINGEKLEELLSERAVQFRAIQRRLLARFKDKTPAPLQHLDTLLDGTYKQVIALADAVEENQGNLFQSFTRLKSATHLVILLIALWQKLSADQVAILEAAFLPLQEDTQELGWEETVDAAISHLLKTCLSKSSKEQALNLNSQLNIPKDTSQLKKHITLLCDRLSKGGRLCLSTDAAAPQTMVMPGGCTTIPESDLEERSVEQDSTELFTNHRHLTAETPRPEVSPLQGVSE
partner: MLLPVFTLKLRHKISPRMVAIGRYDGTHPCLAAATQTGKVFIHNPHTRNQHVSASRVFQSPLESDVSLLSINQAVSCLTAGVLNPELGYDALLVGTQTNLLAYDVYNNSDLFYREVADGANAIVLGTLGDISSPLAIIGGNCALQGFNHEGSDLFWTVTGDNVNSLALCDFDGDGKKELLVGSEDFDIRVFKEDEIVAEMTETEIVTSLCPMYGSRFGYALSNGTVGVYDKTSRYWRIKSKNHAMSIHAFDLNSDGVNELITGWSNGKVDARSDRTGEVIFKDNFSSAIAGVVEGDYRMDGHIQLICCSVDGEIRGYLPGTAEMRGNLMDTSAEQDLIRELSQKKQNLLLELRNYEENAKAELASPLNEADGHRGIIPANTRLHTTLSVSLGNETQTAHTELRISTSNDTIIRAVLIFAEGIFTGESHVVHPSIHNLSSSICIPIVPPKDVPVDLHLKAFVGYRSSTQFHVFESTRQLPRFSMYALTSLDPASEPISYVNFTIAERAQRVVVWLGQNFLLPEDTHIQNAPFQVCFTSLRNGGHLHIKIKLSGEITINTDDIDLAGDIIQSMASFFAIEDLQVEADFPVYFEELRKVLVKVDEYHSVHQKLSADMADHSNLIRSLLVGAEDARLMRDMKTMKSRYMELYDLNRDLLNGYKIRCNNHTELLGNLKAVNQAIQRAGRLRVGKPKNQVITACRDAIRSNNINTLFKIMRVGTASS

Variants of: B1
Conditions: with bbs2_human BBS2, Q9BXC9

Row | effect of a mutation on the interaction | Variant
1 | with no effect | L744K
2 | with no effect | L744E
3 | with no effect | L744A
4 | disrupting interaction strength | L744F
5 | with no effect | Q742A
6 | disrupting interaction strength | Q742S
7 | with no effect | Q742K
8 | with no effect | Q742E
9 | disrupting interaction strength | Q742L
10 | with no effect | V734A
11 | with no effect | V734K
12 | with no effect | V734E
13 | with no effect | E753A
14 | with no effect | E753K
15 | with no effect | I738K
16 | with no effect | I738A
17 | with no effect | I738E
18 | with no effect | A710K
19 | with no effect | A710E
20 | with no effect | L740K
21 | with no effect | L740E
22 | with no effect | L740A
23 | with no effect | Q722E
24 | disrupting interaction strength | Q722T
25 | with no effect | Q722K
26 | with no effect | Q722A

Row | effect of a mutation on the interaction | Variant
27 | with no effect | S745K
28 | with no effect | S745E
29 | with no effect | S745A
30 | with no effect | T731K
31 | with no effect | T731E
32 | with no effect | T731A
33 | with no effect | L733A
34 | with no effect | L733K
35 | with no effect | L733E
36 | with no effect | L757A
37 | with no effect | L757E
38 | with no effect | L757K
39 | with no effect | E761K
40 | with no effect | E761A
41 | with no effect | K743A
42 | with no effect | K743E
43 | with no effect | Q748E
44 | disrupting interaction strength | Q748L
45 | disrupting interaction strength | Q748K
46 | with no effect | Q748A
47 | with no effect | A708E
48 | with no effect | A708K
49 | with no effect | L737A
50 | with no effect | L737K
51 | with no effect | L737E
52 | with no effect | E715K

Row | effect of a mutation on the interaction | Variant
53 | with no effect | E715A
54 | with no effect | R726E
55 | with no effect | R726K
56 | with no effect | R726A
57 | with no effect | E714K
58 | with no effect | E714A
59 | with no effect | V713E
60 | with no effect | V713A
61 | with no effect | V713K
62 | with no effect | L727K
63 | with no effect | L727A
64 | with no effect | L727E
65 | with no effect | F724A
66 | with no effect | F724E
67 | with no effect | F724K
68 | with no effect | N719E
69 | with no effect | N719A
70 | with no effect | N719K
71 | with no effect | I751A
72 | with no effect | I751K
73 | with no effect | I751E
74 | with no effect | A730E
75 | with no effect | A730K
76 | with no effect | I707K
77 | with no effect | I707E
78 | with no effect | I707A

Row | effect of a mutation on the interaction | Variant
79 | with no effect | L736K
80 | with no effect | L736A
81 | with no effect | L736E
82 | with no effect | Q764E
83 | with no effect | Q764A
84 | with no effect | Q764K
85 | with no effect | A746K
86 | with no effect | A746E
87 | with no effect | A755E
88 | with no effect | A755K
89 | with no effect | Q717E
90 | with no effect | Q717K
91 | with no effect | Q717A
92 | with no effect | G767E
93 | with no effect | G767A
94 | with no effect | G767K
95 | with no effect | A712K
96 | with no effect | A712E
97 | with no effect | T763A
98 | with no effect | T763K
99 | with no effect | T763E
100 | with no effect | D747E
101 | with no effect | D747A
102 | with no effect | D747K
103 | with no effect | L759K
104 | with no effect | L759A

Row | effect of a mutation on the interaction | Variant
105 | with no effect | L759E
106 | with no effect | Q760E
107 | with no effect | Q760A
108 | with no effect | Q760K
109 | with no effect | N716K
110 | with no effect | N716E
111 | disrupting interaction strength | N716A
112 | with no effect | E765K
113 | with no effect | E765A
114 | with no effect | L709E
115 | with no effect | L709A
116 | with no effect | L709K
117 | with no effect | V749E
118 | with no effect | V749A
119 | with no effect | V749K
120 | with no effect | S729K
121 | with no effect | S729A
122 | with no effect | S729E
123 | with no effect | T725E
124 | with no effect | T725A
125 | with no effect | T725K
126 | with no effect | S723K
127 | disrupting interaction strength | S723P
128 | with no effect | S723E
129 | with no effect | S723A
130 | with no effect | H732K

Row | effect of a mutation on the interaction | Variant
131 | with no effect | H732E
132 | with no effect | H732A
133 | with no effect | F721A
134 | with no effect | F721E
135 | with no effect | F721K
136 | with no effect | D762E
137 | with no effect | D762A
138 | with no effect | D762K
139 | with no effect | L752E
140 | with no effect | L752A
141 | with no effect | L752K
142 | with no effect | D711E
143 | with no effect | D711K
144 | with no effect | D711A
145 | with no effect | W768A
146 | with no effect | V706K
147 | with no effect | K728A
148 | with no effect | K728E
149 | with no effect | L766K
150 | with no effect | L766A
151 | with no effect | L766E
152 | with no effect | I735E
153 | with no effect | I735A
154 | with no effect | I735K
155 | with no effect | A750K
156 | with no effect | A750E

Row | effect of a mutation on the interaction | Variant
157 | with no effect | A739K
158 | with no effect | A739E
159 | disrupting interaction strength | W741L
160 | disrupting interaction strength | W741G
161 | with no effect | W741E
162 | with no effect | W741K
163 | disrupting interaction strength | W741S
164 | disrupting interaction strength | W741A
165 | disrupting interaction strength | W741R
166 | disrupting interaction strength | G718D
167 | with no effect | G718E
168 | with no effect | G718K
169 | with no effect | G718A
170 | with no effect | F756K
171 | with no effect | F756E
172 | with no effect | F756A
173 | with no effect | L720E
174 | with no effect | L720A
175 | with no effect | L720K
176 | with no effect | A754E
177 | with no effect | A754K
178 | with no effect | P758K
179 | with no effect | P758A
180 | with no effect | P758E

Variants of: B1
Conditions: with bbs2_human BBS2, Q9BXC9
Remark: another data set of the same source

Row | effect of a mutation on the interaction | Variant
181 | with no effect | W741A
